± gives the standard error. For part of these data: Fewer inactive variants are shown than the library holds.
B1: glmS ribozyme (parent)
chain: AUAAAAGCGCCAGAACUACAGAAAUGUAGUUGACGAGGAGGAGGUUUAUCGAAUUUUCGGCGGAUGCCUCCAAA

Assays:
Details in all cases: with glucosamine-6-phosphate
glucosamine-6-phosphate [1] = variants of: B1; experiment: kcat; higher = faster cleavage; RNA array
How it was run: (§1)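 Tiles of sequenced MiSeq chips were imaged over ~14 h at 37 °C. On them, barcoded ribozyme variants had been transcribed in situ by E. coli RNA polymerase and were tracked via a hybridised Cy3 probe while glucosamine-6-phosphate (40 μM to 10 mM) in HEPES/KCl/Mg(OAc)2 buffer flowed in. Per-tile medians, normalised to baseline and to non-cleaving reference variants, were fit to one- or two-exponential decays for kobs, and weighted Michaelis–Menten fits gave kcat and KM.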

glucosamine-6-phosphate [2] = variants of: B1; experiment: KM; higher = weaker cofactor use; RNA array
How it was run: as §1

glucosamine-6-phosphate [3] = variants of: B1; experiment: self-cleavage kobs at 640 uM GlcN6P; higher = faster cleavage; RNA array
How it was run: as §1

glucosamine-6-phosphate [4] = variants of: B1; experiment: self-cleavage kobs at 2500 uM GlcN6P; higher = faster cleavage; RNA array
How it was run: as §1

glucosamine-6-phosphate [5] = variants of: B1; experiment: self-cleavage kobs at 10000 uM GlcN6P; higher = faster cleavage; RNA array
How it was run: as §1

glucosamine-6-phosphate [6] = variants of: B1; experiment: self-cleavage kobs at 40 uM GlcN6P; higher = faster cleavage; RNA array
How it was run: as §1

glucosamine-6-phosphate [7] = variants of: B1; experiment: self-cleavage kobs at 160 uM GlcN6P; higher = faster cleavage; RNA array
How it was run: as §1

Row | Variant | kcat (glucosamine-6-phosphate [1]) [s⁻¹] | KM (glucosamine-6-phosphate [2]) [µM] | self-cleavage kobs at 640 uM GlcN6P (glucosamine-6-phosphate [3]) [s⁻¹] | self-cleavage kobs at 2500 uM GlcN6P (glucosamine-6-phosphate [4]) [s⁻¹] | self-cleavage kobs at 10000 uM GlcN6P (glucosamine-6-phosphate [5]) [s⁻¹] | self-cleavage kobs at 40 uM GlcN6P (glucosamine-6-phosphate [6]) [s⁻¹] | self-cleavage kobs at 160 uM GlcN6P (glucosamine-6-phosphate [7]) [s⁻¹]
1 | G41C C71U | 0.000207 ± 2.1e-05 | 2580 ± 590 | 3.67e-05 ± 8.3e-06 | 0.000119 ± 1.8e-05 | 0.00016 ± 1.7e-05 | – | –
2 | A15G G66C | 0.000786 ± 0.00011 | 833 ± 220 | 0.000368 ± 6e-05 | 0.000793 ± 0.00014 | 0.000649 ± 9.7e-05 | 3.37e-05 ± 1.1e-05 | 0.000115 ± 2.5e-05
3 | U31C A42G | 0.00894 ± 0.0011 | 2260 ± 400 | 0.00212 ± 0.00035 | 0.00407 ± 0.0011 | 0.00754 ± 0.0012 | 0.000166 ± 2.9e-05 | 0.000469 ± 0.00016
4 | A48U U55A U56C | 4.34e-05 ± 3.5e-06 | – | – | 3.8e-05 ± 1.3e-05 | 4.04e-05 ± 1e-05 | – | –
5 | G37A C70A | 1.38e-05 ± 4.2e-06 | – | – | – | – | < 1e-05 | –
6 | A33C A48U | < 1e-05 | – | – | – | – | < 1e-05 | < 1e-05
7 | G41A U54G | 0.000873 ± 0.00013 | 336 ± 90 | 0.00057 ± 0.00021 | 0.000898 ± 0.00016 | 0.000661 ± 0.00021 | 9.13e-05 ± 1.9e-05 | –
8 | U31A C50A G51U A53G | < 1e-05 | – | – | – | – | – | < 1e-05
9 | A39G U45A | 0.0357 ± 0.011 | 581 ± 220 | 0.0157 ± 0.0034 | 0.061 ± 0.03 | 0.0497 ± 0.018 | 0.00238 ± 0.00029 | 0.00768 ± 0.0018
10 | U55C U57G | 3.92e-05 ± 2.9e-06 | 840 ± 320 | – | 2.98e-05 ± 1.5e-05 | – | < 1e-05 | < 1e-05
11 | U55A | 0.0533 ± 0.012 | 1770 ± 530 | 0.0133 ± 0.00067 | 0.025 ± 0.0015 | 0.0555 ± 0.0025 | 0.00134 ± 4.9e-05 | 0.0039 ± 0.00028
12 | G40C G66A | 0.00247 ± 0.00097 | – | 0.00111 ± 0.0003 | 0.00108 ± 0.00021 | 0.00269 ± 0.0004 | 9.75e-05 ± 2.1e-05 | 0.000162 ± 4.5e-05
13 | G37A G41A | 0.000353 ± 0.00012 | – | 3.79e-05 ± 9.7e-06 | 0.00016 ± 2.5e-05 | 0.000229 ± 4.8e-05 | – | 3.21e-05 ± 1.4e-05
14 | A6U U65G | 3.43e-05 ± 1e-05 | – | – | 4.32e-05 ± 1.3e-05 | – | < 1e-05 | –
15 | A39U G66C | 0.0109 ± 0.0036 | 6420 ± 2800 | 0.00112 ± 0.00026 | 0.00343 ± 0.00096 | 0.0065 ± 0.001 | 5.39e-05 ± 1.3e-05 | 0.00046 ± 0.00012

Source: the supplement of paper PMC7125110
